EP1728864A1 (dated 2006)

T1: human gp39 (cell-expressed, full length) (human, UniProt P29965 1-261)
T1 sequence (looked up): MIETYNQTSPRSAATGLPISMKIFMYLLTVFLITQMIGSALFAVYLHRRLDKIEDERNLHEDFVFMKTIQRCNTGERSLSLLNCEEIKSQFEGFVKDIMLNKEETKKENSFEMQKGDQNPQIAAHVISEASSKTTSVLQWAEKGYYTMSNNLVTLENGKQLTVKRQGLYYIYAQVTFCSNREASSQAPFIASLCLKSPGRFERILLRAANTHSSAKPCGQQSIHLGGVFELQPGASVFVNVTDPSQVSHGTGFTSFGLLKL

B1: 39-1.106 (antibody, mouse IgG1, V domains shown)
VH: EVKLVESGGGLVKPGGSLKLSCTTSGFTFNNYAMSWVRQTPEKRLEWVASISSGDSTYYFDSVRGRFTISRDNARNILYLQMSSLRSEDTAMYYCARHYDYDSYAMDYWGQGTSVTVS
VL: DIQMTQSPASLSASVGETVTITCRASETIYSYLAWYQQKQGRSPQLLVYNAKTLAEGVPSRFSGSGSGTQFSLKINSLQPEDFGSYYCQHHYNTPLTFGTGTKLELKR
notes: murine IgG1, kappa
B2: 106 sFv-Ig (scFv)
scFv: DIQMTQSPASLSASVGETVTITCRASETIYSYLAWYQQKQGRSPQLLVYNAKTLAEGVPSRFSGSGSGTQFSLKINSLQPEDFGSYYCQHHYNTPLTFGTGTKLELKRGGGGSGGGGSGGGGSEVKLVESGGGLVKPGGSLKLSCTTSGFTFNNYAMSWVRQTPEKRLEWVASISSGDSTYYFDSVRGRFTISRDNARNILYLQMSSLRSEDTAMYYCARHYDYDSYAMDYWGQGTSVTVS
notes: VL-linker-VH-human Ig, monomeric; L6 V kappa leader used for secretion; not shown: hinge-CH2-CH3 of human IgG1
B3: 39-1.7 (antibody, mouse IgG2b, V domains shown)
VH: EVQLQQSGPELVKPGASVKMSCKASGYTFTDYYMKWVKQSHGKSLEWIGNINPNNGDTFFNQKFEGKATLTVDKSSSAAYMQLNSLTSEDSAVKKCARGPGTNYFDYWGQGTTLTVSS
VL: DIVLTQSPVSLAVSLGQRVTISCRASQSVSSSTNSYMHWYQQKPGQPPKLLIKYASNLESGVPARFSGSGSGTDFTLNIHPVEEEDTATYYCQHSWEIPFTFGSGTKLEIRR

What was measured:
[1] = molecular target: T1, human gp39 (cell-expressed, full length); assay: cell-based or functional assay
[2] = molecular target: sgp39 mutant K143/A (murine; human); assay: ELISA on captured mutant sgp39
[3] = molecular target: sgp39 mutant E129/A (murine; human); assay: ELISA on captured mutant sgp39
[4] = molecular target: sgp39 mutant S131/A-T135/A (murine; human); assay: ELISA on captured mutant sgp39
[5] = molecular target: sgp39 mutant Y145/A (murine; human); assay: ELISA on captured mutant sgp39
[6] = molecular target: sgp39 mutant F201/A-E202/A (murine; human); assay: ELISA on captured mutant sgp39
[7] = molecular target: sgp39 mutant N180/A (murine; human); assay: ELISA on captured mutant sgp39
[8] = molecular target: T1, human gp39 (cell-expressed, full length); assay: saturation binding of iodinated protein to BMS-10 Jurkat cells
[9] = molecular target: T1, human gp39 (cell-expressed, full length); assay: saturation binding of radiolabeled protein to gp39+ Jurkat cells

Row | Binder | IgG synthesis, % of medium only control, 0.94 x10^12 binding sites/ml [1] | IgG synthesis, % of medium only control, 1.88 x10^12 binding sites/ml [1] | IgG synthesis, % of medium only control, 3.76 x10^12 binding sites/ml [1] | IgG synthesis, % of medium only control, 7.53 x10^12 binding sites/ml [1] | IgM synthesis, % of medium only control, 0.94 x10^12 binding sites/ml [1] | IgM synthesis, % of medium only control, 1.88 x10^12 binding sites/ml [1] | IgM synthesis, % of medium only control, 3.76 x10^12 binding sites/ml [1] | IgM synthesis, % of medium only control, 7.53 x10^12 binding sites/ml [1] | % of binding to wild-type sgp39 [2] | % of binding to wild-type sgp39 [3] | % of binding to wild-type sgp39 [4] | % of binding to wild-type sgp39 [5] | % of binding to wild-type sgp39 [6] | % of binding to wild-type sgp39 [7] | Kd [8] | fold greater affinity than 106 sFv-Ig [9]
1 | B1 | 37% | 26% | 24% | 11% | 34% | 27% | 19% | 25% | 52% | 130% | 113% | 124% | 9% | 144% | 0.4 nM | ~3 fold
2 | B2 | 21% | 10% | 12% | 14% | 19% | 12% | 12% | 12% | – | – | – | – | – | – | 1.6 nM | –
3 | B3 | 60% | 11% | 17% | 12% | 64% | 29% | 24% | 14% | 5% | 70% | 89% | 106% | 112% | 93% | – | –
